According to article doi:10.1101/2023.09.14.557733:

Target: FgSte2-yellow fluorescent protein (F. graminearum)
Experiment: FRET or BRET

FgSte3-Nano luciferase (receptor)
BRET50 (galactose concentration for donor induction): 2 % galactose | mBRET: 110 mBRET | netBRET: > 0.1 netBRET
